These are literature values, as cited in patent publication US7662384B2, “Use of anti-α5β1 antibodies to inhibit cancer cell proliferation” (Facet Biotech Corporation, priority 2004, dated 2010).

Read-outs that look alike come from different tables or passages of the source.

Series [1] deals with angiogenesis. Particulars: monkey eye model; cited from earlier work.
Series [2] deals with angiogenesis. Particulars: rabbit eye model; cited from earlier work.

B1: F200: Fab fragment derived from M200 (antibody, chains of the INN, looked up, V domains shown)
VH: QVQLKESGPGLVAPSQSLSITCTISGFSLTDYGVHWVRQPPGKGLEWLVVIWSDGSSTYNSALKSRMTIRKDNSKSQVFLIMNSLQTDDSAMYYCARHGTYYGMTTTGDALDYWGQGTSVTVSS
VL: QIVLTQSPAIMSASLGERVTMTCTASSSVSSNYLHWYQQKPGSAPNLWIYSTSNLASGVPARFSGSGSGTSYSLTISSMEAEDAATYYCHQYLRSPPTFGGGTKLEIK
modifications: Fab
notes: Fab fragment derived from M200
Regarding B1, the “in vivo anti-angiogenic efficacy” value in the series with angiogenesis [1] and in the series with angiogenesis [2] was “in vivo anti-angiogenic efficacy” throughout.
